Reference: patent US20240293457A1 (Innovent, published 2024)

Target: T1, human CLDN18.2 on tumor cells (NUGC-4, KATO III-hCLDN18.2, DAN-G-hCLDN18.2) (human, UniProt P56856-2 1-261)
T1 construct: whole, on cells; also called Claudin18.2; DNA-G cells overexpressing Claudin18.2
Assay: FACS binding to NUGC-4 gastric cancer cells (MFI vs Log [Conc(nM)])

EC50: 1.05 nM
B1: HB37A6 (antibody, human IgG1, kappa, V domains shown)
VH: EVQLLDSGGGLVQPGGSLRLSCAASGFTFSSYVMSWVRQAPGKGLNWVSTISHSGGSTYYADSVKGRFTISRDNSKNTLYLQMNSLRAEDTAVYYCAIDAPYYDILTGYRYWGQGTLVTVSS
VL: not shown
notes: Fully human; expressed in HEK293 cells as a full-length human IgG1 kappa monoclonal antibody
